Test results reported in US20110263014.
Changes are numbered by the printed parent chain.

What was measured:
mNanog (D67G) = target: T1, mNanog (D67G) (UniProt Q80Z64)
T1 sequence: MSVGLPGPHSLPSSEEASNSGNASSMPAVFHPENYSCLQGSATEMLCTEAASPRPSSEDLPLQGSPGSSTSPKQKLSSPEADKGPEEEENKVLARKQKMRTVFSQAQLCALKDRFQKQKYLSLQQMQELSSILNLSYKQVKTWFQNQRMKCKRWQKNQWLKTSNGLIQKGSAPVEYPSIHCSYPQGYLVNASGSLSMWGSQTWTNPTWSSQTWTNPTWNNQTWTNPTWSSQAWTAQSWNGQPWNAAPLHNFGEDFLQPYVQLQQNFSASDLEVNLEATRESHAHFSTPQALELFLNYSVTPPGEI

mouse Nanog (mNanog) = target: T2, mouse Nanog (mNanog) (UniProt Q80Z64)
T2 sequence: T1 sequence with G67D

Substance: recombinant caspase-9
- cleavage of immunoprecipitated mNanog (D67G) by recombinant caspase (mNanog (D67G)): Mutation D67G in mNanog greatly diminished cleavage of mNanog by caspase-9
- cleavage of immunoprecipitated mNanog by recombinant caspase (mouse Nanog (mNanog)): Only caspase-9 effectively cleaved mNanog into a 27 kDa fragment
- in vitro caspase cleavage assay (mouse Nanog (mNanog)): caspase-9 can effectively cleave in vitro-translated mNanog
